Data as given in patent publication US20230365705A1 (DYNAMICURE BIOTECHNOLOGY, published 2023).
One block for each binder: values may come before it.

Experiments:
[1] = molecular target: T1, Human CD93 recombinant protein (Sino Biological Inc, Catalog #12589-H08H) (human, UniProt Q9NPY3 22-580); experiment: BLI (Octet QKe), biotinylated human CD93 on streptavidin biosensors; antibody stored 4 weeks at 40 C
T1 construct: Biotinylated (EZ-LINK NHS-PEG4 biotin) in the BLI assays; also called hCD93; His-tagged human CD93
T1 sequence (looked up): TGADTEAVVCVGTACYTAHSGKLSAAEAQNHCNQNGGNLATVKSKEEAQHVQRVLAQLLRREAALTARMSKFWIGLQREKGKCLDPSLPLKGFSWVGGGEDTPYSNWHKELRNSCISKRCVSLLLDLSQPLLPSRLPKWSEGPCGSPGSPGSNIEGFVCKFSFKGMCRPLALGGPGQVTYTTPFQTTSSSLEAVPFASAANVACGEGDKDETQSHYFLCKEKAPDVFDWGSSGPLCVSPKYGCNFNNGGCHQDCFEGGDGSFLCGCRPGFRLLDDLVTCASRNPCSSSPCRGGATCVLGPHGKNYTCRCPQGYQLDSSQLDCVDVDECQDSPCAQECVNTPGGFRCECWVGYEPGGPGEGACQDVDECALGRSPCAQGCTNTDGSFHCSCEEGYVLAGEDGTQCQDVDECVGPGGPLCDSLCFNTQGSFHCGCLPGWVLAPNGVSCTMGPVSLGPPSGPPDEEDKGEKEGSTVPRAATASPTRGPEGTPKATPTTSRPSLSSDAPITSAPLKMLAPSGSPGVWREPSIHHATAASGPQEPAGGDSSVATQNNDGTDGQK
Protocol: The binding affinity of anti-CD93 antibodies was determined with bio-layer interferometry using Octet QKe (Fortebio). […] Human CD93 recombinant protein (Sino Biological Inc, Catalog #12589-H08H) was biotinylated using EZ-LINK NHS-PEG4 biotin (Thermo Fisher Scientific). Streptavidin biosensors (Fortebio) were used to load biotinylated CD93 protein (300 seconds in 5 μg/ml). Baseline was stabilized for 60 seconds in 1× kinetics buffer (Fortebio) before anti-CD93 antibodies, at a serial dilution, were allowed to associate for 300 seconds with captured protein. Then the sensors were dissociated in 1× kinetics buffer for 600 seconds. […] (FIG. 42).

[2] = molecular target: T2, Human CD93 on cells (human CD93 expressing CHO cells; HUVEC, U937 and KG1a cells) (human, UniProt Q9NPY3 22-652); experiment: summary table, column FACS (HUVEC cells); 4 weeks at 40 C
T2 construct: whole, on cells; also called hCD93 expressing CHO cells; hCD93 CHO cells
T2 sequence (looked up): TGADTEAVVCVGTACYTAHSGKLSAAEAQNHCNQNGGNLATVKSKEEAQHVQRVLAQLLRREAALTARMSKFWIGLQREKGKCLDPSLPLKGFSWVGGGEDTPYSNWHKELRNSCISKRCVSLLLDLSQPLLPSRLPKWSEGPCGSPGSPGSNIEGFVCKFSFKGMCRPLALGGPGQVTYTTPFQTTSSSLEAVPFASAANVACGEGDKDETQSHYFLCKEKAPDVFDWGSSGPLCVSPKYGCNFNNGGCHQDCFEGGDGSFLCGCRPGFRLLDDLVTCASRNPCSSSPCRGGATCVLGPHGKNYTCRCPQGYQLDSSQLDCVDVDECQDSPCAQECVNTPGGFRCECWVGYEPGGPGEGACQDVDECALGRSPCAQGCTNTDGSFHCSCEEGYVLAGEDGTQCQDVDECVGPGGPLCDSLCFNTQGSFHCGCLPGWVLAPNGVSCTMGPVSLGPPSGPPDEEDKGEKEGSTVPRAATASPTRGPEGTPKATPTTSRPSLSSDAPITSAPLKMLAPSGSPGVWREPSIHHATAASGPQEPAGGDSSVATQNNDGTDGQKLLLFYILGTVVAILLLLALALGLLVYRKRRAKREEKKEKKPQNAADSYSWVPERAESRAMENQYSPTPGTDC
Protocol: HUVEC cells were detached by incubation with TrypLE reagents (Thermo Fisher), which preserves the integrity of CD93 on the cell surface. Then the cells were incubated with serial diluted anti-CD93 antibodies for 30 minutes at 4° C. After washing by FACS buffer, the cells were incubated with Alexa Fluor 647 conjugated anti-human IgG (Jackson ImmunoResearch) for 30 minutes in 4° C. After washing by FACS buffer twice, the samples were acquired in NovoCyte Flow Cytometer and analyzed by NovoExpress software.

[3] = molecular target: T3, cynomolgus CD93 protein (made in-house) (cynomolgus, UniProt A0A2K5VH53 22-580); experiment: BLI (Octet QKe), biotinylated CD93 on streptavidin biosensors; table under the cynoCD93 panels
T3 construct: Biotinylated in BLI; also called cyno CD93; cynoCD93
T3 sequence: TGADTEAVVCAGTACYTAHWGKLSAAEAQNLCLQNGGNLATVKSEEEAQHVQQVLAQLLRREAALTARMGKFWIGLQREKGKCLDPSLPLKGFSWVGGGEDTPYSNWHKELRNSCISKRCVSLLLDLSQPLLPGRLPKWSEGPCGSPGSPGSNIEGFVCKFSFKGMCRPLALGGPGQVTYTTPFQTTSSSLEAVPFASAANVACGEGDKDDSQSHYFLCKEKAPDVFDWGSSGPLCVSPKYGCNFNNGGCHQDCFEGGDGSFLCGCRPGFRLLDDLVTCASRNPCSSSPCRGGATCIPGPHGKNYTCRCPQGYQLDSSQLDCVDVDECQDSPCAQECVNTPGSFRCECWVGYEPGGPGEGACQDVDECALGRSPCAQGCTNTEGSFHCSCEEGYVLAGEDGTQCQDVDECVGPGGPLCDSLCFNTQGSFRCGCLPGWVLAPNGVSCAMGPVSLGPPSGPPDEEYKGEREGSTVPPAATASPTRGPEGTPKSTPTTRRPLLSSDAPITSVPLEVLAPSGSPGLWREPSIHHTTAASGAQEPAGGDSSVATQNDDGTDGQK
Protocol: The binding affinity of anti-CD93 antibodies were determined with bio-layer interferometry using Octet QKe (Fortebio). Human CD93 recombinant protein (Sino Biological Inc, Catalog #12589-H08H) or cynomolgus CD93 protein (made in-house) were biotinylated using EZ-LINK NHS-PEG4 biotin (Thermo Fisher Scientific). Streptavidin biosensors (Fortebio) were used to load biotinylated CD93 protein (300 seconds at 5 μg/ml). The baseline was stabilized for 60 seconds in a 1× kinetics buffer (Fortebio) before serially diluted anti-CD93 antibodies were allowed to associate for 300 seconds with captured protein. The sensors were dissociated in a 1× kinetics buffer for 600 seconds.

Kd [1]: 0.112 nM
koff [1]: 3.24e-05 s⁻¹
kon [1]: 289000 M⁻¹ s⁻¹
B1: h16E4 (humanized 16E4, VH4+VL6) (antibody, V domains shown)
VH: QVQLVQSGAEVKKPGASVKVSCKASGYTFTSYWMHWVRQAPGQGLEWMGEIDPSASYTYYNQKFKGRVTMTRDKSSSTVYMELSSLTSEDSAVYYCARSVYYGNKYFDVWGAGTTVTVSS
VL: DIQMTQSPSTLSASVGDRVTITCKASQSVDYAGDSYMNWYQQKPGKAPKLLIYAASNLESGVPSRFSGSGSGTEFTLTISSLQPDDFATYYCQQTNEDPRTFGGGTKLEIK
notes: Detected with anti-human IgG, so a human Fc

EC50 [2]: 1.12 nM
B2: h7F3 (humanized 7F3, VH3+VL3) (antibody, human IgG1, V domains shown)
VH: QVQLVQSGAEVKKPGASVKVSCKASGYTFTDYEMHWVRQAPGQGLEWMGGIDPETGDTAYNQNFKGRVTMTTDTSTSTAYMELRSLTSDDTAVYYCTNYGNLYYYAMDYWGQGTSVTVSS
VL: EIVLTQSPSSLSASVGDRVTITCRASSSVSSSYLHWYQQKPGKAPKLLIYSTSNLAFGVPSRFSGSGSGTSYTFTISSLQPEDIATYYCQQYSGYPLTFGSGTKLEIK
notes: also called humanized 7F3-hIgG1

Kd [3]: 0.446 nM
kon [3]: 663000 M⁻¹ s⁻¹
B3: 16E4 (hybridoma) (antibody, IgG2a, V domains shown)
VH: QVQLQQPGAELVKPGASVKLSCKASGYTFTSYWMHWVKQRPGQGLEWIGEIDPSASYTYYNQKFKGKATLTVDKSSSTAYMQLSSLTSEDSAVYYCARSVYYGNKYFDVWGAGTTVTVSS
VL: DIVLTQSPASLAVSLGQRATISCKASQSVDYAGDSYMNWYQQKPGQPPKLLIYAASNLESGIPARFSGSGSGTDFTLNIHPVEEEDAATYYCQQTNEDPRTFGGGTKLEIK
notes: also called 16E4 mAb; 16E4 mIgG2a
